Data as given in paper PMC7065271 (Chemico-biological interactions, 2020).

Target: the molecule itself
Assay: SEC

B1: Torpedo californica acetylcholinesterase tetramer (enzyme, UniProt P04058-2 22-596, looked up)
chain: DDHSELLVNTKSGKVMGTRVPVLSSHISAFLGIPFAEPPVGNMRFRRPEPKKPWSGVWNASTYPNNCQQYVDEQFPGFSGSEMWNPNREMSEDCLYLNIWVPSPRPKSTTVMVWIYGGGFYSGSSTLDVYNGKYLAYTEEVVLVSLSYRVGAFGFLALHGSQEAPGNVGLLDQRMALQWVHDNIQFFGGDPKTVTIFGESAGGASVGMHILSPGSRDLFRRAILQSGSPNCPWASVSVAEGRRRAVELGRNLNCNLNSDEELIHCLREKKPQELIDVEWNVLPFDSIFRFSFVPVIDGEFFPTSLESMLNSGNFKKTQILLGVNKDEGSFFLLYGAPGFSKDSESKISREDFMSGVKLSVPHANDLGLDAVTLQYTDWMDDNNGIKNRDGLDDIVGDHNVICPLMHFVNKYTKFGNGTYLYFFNHRASNLVWPEWMGVIHGYEIEFVFGLPLVKELNYTAEEEALSRRIMHYWATFAKTGNPNEPHSQESKWPLFTTKEQKFIDLNTEPMKVHQRLRVQMCVFWNQFLPKLLNATETIDEAERQWKTEFHRWSSYMMHWKNQFDHYSRHESCAEL
stoichiometry N: 4
